Data: US20250388881A1, “METHOD FOR IMPROVING THERMOSTABILITY OF PHYTASE, MUTANT AND USE” (priority 2022, published 2025)

Key:
[1] = target: Yersinia intermedia phytase APPAmut4 (parent), SEQ ID NO: 1 (Yersinia intermedia, UniProt Q000T0, A346L/M382L/V109D/Y74E); experiment: Determination of dynamic parameters on sodium phytate: phytase APPAmut4; format: biochemical; details: 37° C., pH 5.5, sodium phytate 0.05 to 1.00 mM
[2] = target: Yersinia intermedia phytase APPAmut4 (SEQ ID NO: 1) mutant A147C/Y268C (Yersinia intermedia, UniProt Q000T0, A170C/A346L/M382L/V109D/Y291C/Y74E); experiment: Determination of dynamic parameters on sodium phytate: mutant A147C/Y268C; format: biochemical; details: 37° C., pH 5.5, sodium phytate 0.05 to 1.00 mM
[3] = target: Yersinia intermedia phytase APPAmut4 (SEQ ID NO: 1) mutant G65R (Yersinia intermedia, UniProt Q000T0, A346L/G88R/M382L/V109D/Y74E); experiment: Determination of dynamic parameters on sodium phytate: mutant G65R; format: biochemical; details: 37° C., pH 5.5, sodium phytate 0.05 to 1.00 mM
[4] = test system: O=P(O)(O)O[C@H]1[C@H](OP(=O)(O)O)[C@@H](OP(=O)(O)O)[C@H](OP(=O)(O)O)[C@@H](OP(=O)(O)O)[C@H]1OP(=O)(O)O; experiment: Determination of dynamic parameters on sodium phytate: mutant A57C/A103C; format: biochemical, Yersinia intermedia; details: other: A57C/A103C, 37° C., pH 5.5, sodium phytate 0.05 to 1.00 mM
[5] = test system: O=P(O)(O)O[C@H]1[C@H](OP(=O)(O)O)[C@@H](OP(=O)(O)O)[C@H](OP(=O)(O)O)[C@@H](OP(=O)(O)O)[C@H]1OP(=O)(O)O; experiment: Determination of dynamic parameters on sodium phytate: mutant A147C/Y268C; format: biochemical, Yersinia intermedia; details: other: A147C/Y268C, 37° C., pH 5.5, sodium phytate 0.05 to 1.00 mM
[6] = test system: O=P(O)(O)O[C@H]1[C@H](OP(=O)(O)O)[C@@H](OP(=O)(O)O)[C@H](OP(=O)(O)O)[C@@H](OP(=O)(O)O)[C@H]1OP(=O)(O)O; experiment: Determination of dynamic parameters on sodium phytate: mutant E282L; format: biochemical, Yersinia intermedia; details: other: E282L, 37° C., pH 5.5, sodium phytate 0.05 to 1.00 mM
[7] = test system: O=P(O)(O)O[C@H]1[C@H](OP(=O)(O)O)[C@@H](OP(=O)(O)O)[C@H](OP(=O)(O)O)[C@@H](OP(=O)(O)O)[C@H]1OP(=O)(O)O; experiment: Determination of dynamic parameters on sodium phytate: mutant G65R; format: biochemical, Yersinia intermedia; details: other: G65R, 37° C., pH 5.5, sodium phytate 0.05 to 1.00 mM
[8] = test system: O=P(O)(O)O[C@H]1[C@H](OP(=O)(O)O)[C@@H](OP(=O)(O)O)[C@H](OP(=O)(O)O)[C@@H](OP(=O)(O)O)[C@H]1OP(=O)(O)O; experiment: Determination of dynamic parameters on sodium phytate: mutant G101C/V116C; format: biochemical, Yersinia intermedia; details: other: G101C/V116C, 37° C., pH 5.5, sodium phytate 0.05 to 1.00 mM
[9] = test system: O=P(O)(O)O[C@H]1[C@H](OP(=O)(O)O)[C@@H](OP(=O)(O)O)[C@H](OP(=O)(O)O)[C@@H](OP(=O)(O)O)[C@H]1OP(=O)(O)O; experiment: Determination of dynamic parameters on sodium phytate: mutant G365D; format: biochemical, Yersinia intermedia; details: other: G365D, 37° C., pH 5.5, sodium phytate 0.05 to 1.00 mM
[10] = test system: O=P(O)(O)O[C@H]1[C@H](OP(=O)(O)O)[C@@H](OP(=O)(O)O)[C@H](OP(=O)(O)O)[C@@H](OP(=O)(O)O)[C@H]1OP(=O)(O)O; experiment: Determination of dynamic parameters on sodium phytate: mutant R271C/E413C; format: biochemical, Yersinia intermedia; details: other: R271C/E413C, 37° C., pH 5.5, sodium phytate 0.05 to 1.00 mM
[11] = test system: O=P(O)(O)O[C@H]1[C@H](OP(=O)(O)O)[C@@H](OP(=O)(O)O)[C@H](OP(=O)(O)O)[C@@H](OP(=O)(O)O)[C@H]1OP(=O)(O)O; experiment: Determination of dynamic parameters on sodium phytate: mutant R353C/L401C; format: biochemical, Yersinia intermedia; details: other: R353C/L401C, 37° C., pH 5.5, sodium phytate 0.05 to 1.00 mM
[12] = test system: O=P(O)(O)O[C@H]1[C@H](OP(=O)(O)O)[C@@H](OP(=O)(O)O)[C@H](OP(=O)(O)O)[C@@H](OP(=O)(O)O)[C@H]1OP(=O)(O)O; experiment: Determination of dynamic parameters on sodium phytate: phytase APPAmut4; format: biochemical, Yersinia intermedia; details: other: APPAmut4, 37° C., pH 5.5, sodium phytate 0.05 to 1.00 mM

Question: `O=P(O)(O)O[C@H]1[C@H](OP(=O)(O)O)[C@@H](OP(=O)(O)O)[C@H](OP(=O)(O)O)[C@@H](OP(=O)(O)O)[C@H]1OP(=O)(O)O` [sodium phytate] was tested. Which kcat/Km [1] did it give?
Answer: Its kcat/Km is 1.2322e+07 M⁻¹ s⁻¹.

Question: What about the kcat/Km [2] of the same compound?
Answer: The kcat/Km was 1.0823e+07 M⁻¹ s⁻¹.

Question: What about the kcat/Km [3] of the same compound?
Answer: Its kcat/Km is 9.009e+06 M⁻¹ s⁻¹.

Question: Which Km [4] does the source give for “Yersinia intermedia phytase APPAmut4 (SEQ ID NO: 1) mutant A57C/A103C (Yersinia intermedia; A126C/A346L/A80C/M382L/V109D/Y74E)” here?
Answer: Its Km is 180 ± 30 µM.

Question: And the Vmax [4]?
Answer: The Vmax was 2840 µmol/min/mg.

Question: And the kcat [4]?
Answer: The kcat was 2160 ± 130 s⁻¹.

Question: And the kcat/Km [4]?
Answer: The kcat/Km was 1.21e+07 ± 1.37e+06 M⁻¹ s⁻¹.

Question: Which results are given for “Yersinia intermedia phytase APPAmut4 (SEQ ID NO: 1) mutant A147C/Y268C (Yersinia intermedia; A170C/A346L/M382L/V109D/Y291C/Y74E)”?
Answer: Km [5]: 220 ± 30 µM; Vmax [5]: 3140 µmol/min/mg; kcat [5]: 2380 ± 124 s⁻¹; kcat/Km [5]: 1.08e+07 ± 1.02e+06 M⁻¹ s⁻¹

Question: With “Yersinia intermedia phytase APPAmut4 (SEQ ID NO: 1) mutant E282L (Yersinia intermedia; A346L/E305L/M382L/V109D/Y74E)” as the compound, how does the Km [6] read?
Answer: The Km was 150 ± 20 µM.

Question: What about the Vmax [6] of the same compound?
Answer: Its Vmax is 2300 µmol/min/mg.

Question: And the kcat [6]?
Answer: The kcat was 1750 ± 67 s⁻¹.

Question: And the kcat/Km [6]?
Answer: Its kcat/Km is 1.13e+07 ± 967000 M⁻¹ s⁻¹.

Question: How did the Km [7] turn out when “Yersinia intermedia phytase APPAmut4 (SEQ ID NO: 1) mutant G65R (Yersinia intermedia; A346L/G88R/M382L/V109D/Y74E)” was run?
Answer: The Km was 220 ± 40 µM.

Question: What about the Vmax [7] of the same compound?
Answer: Its Vmax is 2630 µmol/min/mg.

Question: And the kcat [7]?
Answer: Its kcat is 2000 ± 77 s⁻¹.

Question: What about the kcat/Km [7] of the same compound?
Answer: Its kcat/Km is 9.01e+06 ± 992000 M⁻¹ s⁻¹.

Question: What does the source list for “Yersinia intermedia phytase APPAmut4 (SEQ ID NO: 1) mutant G101C/V116C (Yersinia intermedia; A346L/G124C/M382L/V109D/V139C/Y74E)”?
Answer: Km [8]: 200 ± 30 µM; Vmax [8]: 2930 µmol/min/mg; kcat [8]: 2230 ± 119 s⁻¹; kcat/Km [8]: 1.11e+07 ± 1.13e+06 M⁻¹ s⁻¹

Question: What does the source list for “Yersinia intermedia phytase APPAmut4 (SEQ ID NO: 1) mutant G365D (Yersinia intermedia; A346L/G388D/M382L/V109D/Y74E)”?
Answer: Km [9]: 140 ± 20 µM; Vmax [9]: 2410 µmol/min/mg; kcat [9]: 1830 ± 58 s⁻¹; kcat/Km [9]: 1.32e+07 ± 1.15e+06 M⁻¹ s⁻¹

Question: What does the source list for “Yersinia intermedia phytase APPAmut4 (SEQ ID NO: 1) mutant R271C/E413C (Yersinia intermedia; A346L/E436C/M382L/R294C/V109D/Y74E)”?
Answer: Km [10]: 180 ± 30 µM; Vmax [10]: 3180 µmol/min/mg; kcat [10]: 2410 ± 154 s⁻¹; kcat/Km [10]: 1.34e+07 ± 1.54e+06 M⁻¹ s⁻¹

Question: Which results are given for “Yersinia intermedia phytase APPAmut4 (SEQ ID NO: 1) mutant R353C/L401C (Yersinia intermedia; A346L/L424C/M382L/R376C/V109D/Y74E)”?
Answer: Km [11]: 200 ± 20 µM; Vmax [11]: 3400 µmol/min/mg; kcat [11]: 2580 ± 124 s⁻¹; kcat/Km [11]: 1.29e+07 ± 955000 M⁻¹ s⁻¹

Question: Which Km [12] does the source give for “Yersinia intermedia phytase APPAmut4 (parent), SEQ ID NO: 1 (Yersinia intermedia; A346L/M382L/V109D/Y74E)” here?
Answer: The Km was 140 ± 30 µM.

Question: And the Vmax [12]?
Answer: Its Vmax is 2270 µmol/min/mg.

Question: And the kcat [12]?
Answer: The kcat was 1720 ± 72 s⁻¹.

Question: And the kcat/Km [12]?
Answer: Its kcat/Km is 1.23e+07 ± 1.58e+06 M⁻¹ s⁻¹.
